According to US20110034673A1 (Kyowa Kirin, published 2011):

T1: mouse HB-EGF (mouse, UniProt Q06186 63-148, limits assumed)
T1 sequence (looked up): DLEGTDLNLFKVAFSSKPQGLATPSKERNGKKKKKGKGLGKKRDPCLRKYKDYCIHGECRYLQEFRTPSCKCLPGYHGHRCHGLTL


How the values were obtained:
[1] = molecular target: T2, recombinant secretory human HB-EGF manufactured by R & D System (catalogue number 259-HE/CF) (human, UniProt Q99075 63-148); assay: SPR (BIACORE T100), HB-EGF immobilized, antibody in flow
T2 construct: also called recombinant human HB-EGF; secretory HB-EGF
T2 sequence (Q99075 63-148 limits assumed): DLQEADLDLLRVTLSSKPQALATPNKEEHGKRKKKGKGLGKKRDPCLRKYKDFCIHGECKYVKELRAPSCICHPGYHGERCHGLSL
Procedure: (§1) In order to analyze binding activities of a mouse antibody KM3566 and the chimeric antibody KM3966 for human HB-EGF in reaction kinetics, the binding activity measurement was carried out using Biacore. All of the following operations were carried out using Biacore T-100 (manufactured by Biacore). Human HB-EGF (manufactured by R & D) prepared into 5 μg/ml using HBS-EP Buffer (manufactured by Biacore) was immobilized onto a CM 5 sensor chip (manufactured by Biacore) to a level of 80 RU (resonance unit) by an amine coupling method. Thereafter, each antibody diluted 5-fold from 9 nmol/l was let flow on the chip at a rate of 10 μl/min, and by analyzing the sensor-gram at each concentration, the association rate constant and dissociation rate constant of each antibody for human HB-EGF were calculated.
In order to reaction-kinetically analyze binding activity of the anti-HB-EGF humanized antibodies for human HB-EGF, it was measured in the same manner as in Example 7(2) using BIACORE T100 (manufactured by BIACORE).
As a result, human HB-EGF binding activity of the anti-HB-EGF humanized antibody HV0LV0 in which the CDRs of anti-HB-EGF chimeric antibody KM3966 were simply transplanted into human framework was reduced close to about ½ of that of the anti-HB-EGF chimeric antibody KM3966, but the binding activity of the anti-HB-EGF humanized antibody HV7LV0 in which amino acid modification was added to the H chain alone and the anti-HB-EGF humanized antibody HV7LV5 in which amino acid modification was added to the H chain and L chain was increased to almost the same level of the anti-HB-EGF chimeric antibody KM3966.

[2] = molecular target: T2, recombinant secretory human HB-EGF …; assay: SPR (BIACORE T100), HB-EGF immobilized
Procedure: as §1
In order to reaction-kinetically analyze binding activity of the anti-HB-EGF humanized antibodies for human HB-EGF, it was measured in the same manner as in Example 7(2) using BIACORE T100 (manufactured by BIACORE). […]

[3] = molecular target: bovine serum albumin (BSA) (bovine, UniProt P02769 25-607); assay: binding ELISA
Chain of bovine serum albumin (BSA) (P02769 25-607 limits assumed): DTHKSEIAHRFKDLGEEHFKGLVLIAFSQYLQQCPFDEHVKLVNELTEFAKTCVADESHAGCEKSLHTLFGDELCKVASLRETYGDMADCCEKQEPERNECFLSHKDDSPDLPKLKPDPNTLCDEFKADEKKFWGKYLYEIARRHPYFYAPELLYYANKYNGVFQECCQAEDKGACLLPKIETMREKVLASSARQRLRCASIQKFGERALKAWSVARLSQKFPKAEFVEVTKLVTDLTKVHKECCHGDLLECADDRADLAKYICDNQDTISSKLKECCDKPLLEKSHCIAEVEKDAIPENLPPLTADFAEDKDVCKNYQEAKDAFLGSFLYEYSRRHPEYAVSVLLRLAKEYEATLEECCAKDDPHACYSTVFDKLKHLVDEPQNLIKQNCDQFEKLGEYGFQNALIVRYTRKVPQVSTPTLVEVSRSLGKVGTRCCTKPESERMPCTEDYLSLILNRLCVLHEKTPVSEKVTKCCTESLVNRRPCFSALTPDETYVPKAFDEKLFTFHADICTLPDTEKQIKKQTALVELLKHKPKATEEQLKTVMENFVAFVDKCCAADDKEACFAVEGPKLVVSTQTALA

mouse HB-EGF = molecular target: T1, mouse HB-EGF; assay: not described
[4] = molecular target: T2, recombinant secretory human HB-EGF …; assay: SPR (Biacore T-100), HB-EGF immobilized on CM5 chip, antibody in flow
Procedure: as §1
It was confirmed based on the results that both antibodies almost the same binding activity for human HB-EGF.

Row | Binder | kon [1] [M⁻¹ s⁻¹] | human HB-EGF binding activity relative to KM3966 [2] | binding result (mouse HB-EGF) | kon [4] [M⁻¹ s⁻¹] | binding result [3]
1 | anti-HB-EGF humanized antibody HV7LV0 (antibody, V domains shown, Whole humanized antibody from pKANTEX93) VH: QVQLVQSGAEVKKPGASVKLSCKASGYTFRTYGITWVRQAPGQGLEWIGEIFPGSGNTYYNEKFKGRATLTADKSTSTAYMELSSLRSEDTAVYFCARESFSDGYYGYFDYWGQGTLLTVSS VL: DIVMTQSPDSLAVSLGERATINCKSSQSLLYSTNQKNSLAWYQQKPGQPPKLLIYWASTRESGVPDRFSGSGSGTDFTLTISSLQAEDVAVYYCQQYYRYPLTFGQGTKLEIK | 174000 |  |  |  | 
2 | anti-HB-EGF humanized antibody HV0LV0 (antibody, V domains shown, Whole humanized antibody expressed from pKANTEX93) VH: QVQLVQSGAEVKKPGASVKVSCKASGYTFTTYGITWVRQAPGQGLEWMGEIFPGSGNTYYNEKFKGRVTITADKSTSTAYMELSSLRSEDTAVYYCARESFSDGYYGYFDYWGQGTLVTVSS VL: DIVMTQSPDSLAVSLGERATINCKSSQSLLYSTNQKNSLAWYQQKPGQPPKLLIYWASTRESGVPDRFSGSGSGTDFTLTISSLQAEDVAVYYCQQYYRYPLTFGQGTKLEIK | 104000 | ~0.5 fold of KM3966 |  |  | 

The next lines start with results.

Row | kon [1] [M⁻¹ s⁻¹] | human HB-EGF binding activity relative to KM3966 [2] | binding result (mouse HB-EGF) | kon [4] [M⁻¹ s⁻¹] | Binder | binding result [3]
3 | 170000 |  |  |  | anti-HB-EGF humanized antibody HV7LV5 (antibody, V domains shown, Whole humanized antibody from pKANTEX93) VH: QVQLVQSGAEVKKPGASVKLSCKASGYTFRTYGITWVRQAPGQGLEWIGEIFPGSGNTYYNEKFKGRATLTADKSTSTAYMELSSLRSEDTAVYFCARESFSDGYYGYFDYWGQGTLLTVSS VL: DIVMTQSPDSLAVSVGERVTMNCKSSQSLLYSTNQKNSLAWYQQKPGQSPKLLIYWASTRESGVPDRFSGSGSGTDFTLTISSVQAEDVAVYYCQQYYRYPLTFGQGTKLEIK | 
4 |  |  | no binding | 270000 | anti-HB-EGF monoclonal antibody KM3566 (antibody, V domains shown, also called anti-HB-EGF mouse antibody KM3566; monoclonal antibody produced by hybridoma KM3566 (FERM BP-10490)) VH: QVQLQQSGTELARPGASVKLSCKASGYTFRTYGITWVKQRTGQGLEWIGEIFPGSGNTYYNEKFKGKASLTADKSSSTAYMQLSSLTSEDSAVYFCARESFSDGYYGYFDYWGQGTTLTVSS VL: not shown | no binding (tested: diluted stepwise from 10 µg/ml)
5 | 187000 |  | no binding | 240000 | anti-HB-EGF chimeric antibody KM3966 (antibody, V domains shown, Human chimeric IgG class antibody made with the vector pKANTEX93 (WO 97/10354); also called human chimeric antibody KM3966; anti-HB-EGF monoclonal antibody KM3966) VH: QVQLQQSGTELARPGASVKLSCKASGYTFRTYGITWVKQRTGQGLEWIGEIFPGSGNTYYNEKFKGKASLTADKSSSTAYMQLSSLTSEDSAVYFCARESFSDGYYGYFDYWGQGTTLTVSS VL: not shown | 
